Measured values reported in article PMC5374107.

Target: Recombinant His-tagged EPCR (human) (UniProt Q9UNN8)
Assay: SPR; Biacore T-200; biotinylated EPCR immobilized to 650 RU on a CAP chip (Biotin Capture Kit); head structures injected, two-fold dilutions 500 nM to 4 nM, 30 µL/min, 240 s association, 720 s dissociation; 10 mM HEPES pH 7.4, 300 mM NaCl, 0.05% Tween-20, 2 mg/ml ssDNA; one-site kinetic model

Chain of Recombinant His-tagged EPCR (human) (Q9UNN8 18-238): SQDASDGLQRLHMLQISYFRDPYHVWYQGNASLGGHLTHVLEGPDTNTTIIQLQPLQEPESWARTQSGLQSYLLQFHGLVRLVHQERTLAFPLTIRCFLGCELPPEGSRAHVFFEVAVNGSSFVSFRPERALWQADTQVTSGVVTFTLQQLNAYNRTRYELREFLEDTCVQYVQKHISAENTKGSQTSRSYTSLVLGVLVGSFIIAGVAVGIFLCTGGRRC

| Substance | Kd [nM] | koff [s⁻¹] | kon [M⁻¹ s⁻¹] |
| --- | --- | --- | --- |
| PFD1235w head structure (CIDRα1.6-DBLβ3) (domain or fragment) | 17.1 | 0.000581 | 34000 |

Target: ICAM-1D1D5-Fc (human)
Assay: SPR; Biacore T-200; ICAM-1D1D5 Fc immobilized to 1,400 RU on a CM5 chip pre-coupled to Protein A; head structures injected, two-fold dilutions 4 nM to 500 nM, 40 µL/min, 240 s association, 600 s dissociation; 10 mM HEPES pH 8.0, 300 mM NaCl, 0.05% Tween-20; one-site kinetic model

| Substance | Kd [nM] | koff [s⁻¹] | kon [M⁻¹ s⁻¹] |
| --- | --- | --- | --- |
| PFD1235w head structure (CIDRα1.6-DBLβ3) (domain or fragment) | 18 | 0.000108 | 6000 |

Target: ICAM-1D1D5-Fc (human)
Assay: SPR; Biacore T-200; ICAM-1D1D5 Fc immobilized to 2100 RU on a CM5 chip pre-coupled to Protein A; wild type or mutant PF11_0521 DBLβ3_D4 injected, two-fold dilutions 4 nM to 500 nM, 40 µL/min, 240 s association, 660 s dissociation; 10 mM HEPES pH 8.0, 300 mM NaCl, 0.05% Tween-20; global fit to a one-site kinetic model

| Substance | Kd [nM] | koff [s⁻¹] | kon [M⁻¹ s⁻¹] |
| --- | --- | --- | --- |
| PF11_0521 DBLβ3_D4 G1083A (domain or fragment) | 3520 | 0.0701 | 19900 |
| PF11_0521 DBLβ3_D4 G1084A (domain or fragment) | 4060 | 0.0394 | 9700 |
| PF11_0521 DBLβ3_D4 G1111A (domain or fragment) | 34.1 | 0.000639 | 18700 |
| PF11_0521 DBLβ3_D4 H1121A (domain or fragment) | 962 | 0.00592 | 6100 |
| PF11_0521 DBLβ3_D4 I1078S (domain or fragment) | 1250 | 0.0235 | 18800 |
| PF11_0521 DBLβ3_D4 K1124A (domain or fragment) | 9.75 | 0.000154 | 15900 |
| PF11_0521 DBLβ3_D4 M1071S (domain or fragment) | 24.6 | 0.000451 | 18400 |
| PF11_0521 DBLβ3_D4 N1082A (domain or fragment) | 1320 | 0.0244 | 18400 |
| PF11_0521 DBLβ3_D4 N1089A (domain or fragment) | 6.3 | 0.000114 | 17900 |
| PF11_0521 DBLβ3_D4 P1116A (domain or fragment) | 1690 | 0.00237 | 1300 |
| PF11_0521 DBLβ3_D4 R1077A (domain or fragment) | 34.7 | 0.000382 | 11000 |
| PF11_0521 DBLβ3_D4 T1120A (domain or fragment) | 21.1 | 0.000298 | 14100 |
| PF11_0521 DBLβ3_D4 domain, wild type (domain or fragment) | 3.2 | 6.2e-05 | 19300 |
